Assay results taken from paper PMC10855866, “Structural Analysis of Breast-Milk αS1-Casein: An α-Helical Conformation Is Required for TLR4-Stimulation” (International Journal of Molecular Sciences, 2024).

Columns and labels:
αS1-casein (Bos taurus) = αS1-casein (Bos taurus) (UniProt P02662); test: SPR; conditions: cited from earlier work
[1] = target: Toll-like receptor 4 (TLR4) (UniProt O00206)
[2] = target: T1, Toll-like receptor 4 (TLR4) (UniProt O00206 24-839); test: cell-based or functional assay
[3] = target: the molecule itself; test: MST; FITC-αS1-casein (25 nM) mixed with unlabelled αS1-casein in serial dilution; sonicated 15 min, incubated 1 h at 37 °C; 20 mM HEPES pH 7.2, 0.5% BSA, 0.0025% Tween-20; oligomer step not resolved
[4] = target: the molecule itself; test: SPR; αS1-casein or P-αS1-casein immobilised on a CMDP-5 chip (450 µRIU); the same protein injected at 0.625 to 5 µM in 10 mM HEPES, 150 mM NaCl, pH 7.2 (5 min, 5 µL/min); KD could be due to a mixture of dimer, tetramer and higher oligomer
[5] = target: T1, Toll-like receptor 4 (TLR4); test: flow cytometry on cells; TLR4+ cells (HEK293 transfected with TLR4/MD2/CD14) and TLR4- cells incubated 24 h with 500 nM αS1-casein or a truncated variant; detected with murine anti-His6 IgG and Dylight633 anti-murine IgG; conditions: one partner purified

T1 sequence (O00206 24-839): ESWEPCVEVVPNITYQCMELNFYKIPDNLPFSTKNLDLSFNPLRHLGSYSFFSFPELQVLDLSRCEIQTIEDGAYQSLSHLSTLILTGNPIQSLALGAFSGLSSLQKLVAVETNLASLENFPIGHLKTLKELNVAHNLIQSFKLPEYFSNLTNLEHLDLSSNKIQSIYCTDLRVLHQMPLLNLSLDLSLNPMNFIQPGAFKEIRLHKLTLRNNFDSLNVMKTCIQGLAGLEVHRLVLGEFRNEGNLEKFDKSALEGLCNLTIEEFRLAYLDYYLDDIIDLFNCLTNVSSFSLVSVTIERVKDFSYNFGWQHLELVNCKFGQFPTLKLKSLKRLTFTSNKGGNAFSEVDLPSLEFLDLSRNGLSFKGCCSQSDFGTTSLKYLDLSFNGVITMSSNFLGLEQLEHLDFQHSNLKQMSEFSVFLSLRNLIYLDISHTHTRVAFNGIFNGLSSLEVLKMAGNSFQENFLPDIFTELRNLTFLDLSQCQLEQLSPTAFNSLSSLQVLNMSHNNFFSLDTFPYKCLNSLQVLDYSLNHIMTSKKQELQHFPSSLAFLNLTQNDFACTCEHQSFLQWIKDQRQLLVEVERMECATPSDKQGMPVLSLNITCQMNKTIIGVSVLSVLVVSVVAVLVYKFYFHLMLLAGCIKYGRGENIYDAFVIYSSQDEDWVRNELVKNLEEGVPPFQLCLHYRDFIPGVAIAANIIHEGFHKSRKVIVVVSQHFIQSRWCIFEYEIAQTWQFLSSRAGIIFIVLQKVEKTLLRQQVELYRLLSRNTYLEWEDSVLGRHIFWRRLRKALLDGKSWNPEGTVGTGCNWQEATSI
Chain of Toll-like receptor 4 (TLR4) (UniProt O00206) (O00206 24-839): as above
Chain of αS1-casein (Bos taurus) (P02662 16-214): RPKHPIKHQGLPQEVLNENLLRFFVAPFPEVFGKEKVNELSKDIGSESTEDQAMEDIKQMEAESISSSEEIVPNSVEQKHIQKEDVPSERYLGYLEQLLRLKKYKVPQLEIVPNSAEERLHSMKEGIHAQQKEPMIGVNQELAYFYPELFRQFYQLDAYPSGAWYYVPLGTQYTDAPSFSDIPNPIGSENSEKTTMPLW

**Q.** For αS1-casein (from UniProt P02662), which Kd (αS1-casein (Bos taurus)) is on record?
**A.** 2 µM

**Q.** With VAEPEKMESSISSSSE [synthetic peptide V77-E92 of αS1-casein] as the molecule, how does the IL-8 secretion of TLR4+ cells after 24 h with 1.5 µM peptide (sandwich ELISA) [1] read?
**A.** 0.95 ng/mL

B1: recombinant human αS1-casein (natural protein, UniProt P47710 16-185, looked up)
chain: RPKLPLRYPERLQNPSESSEPIPLESREEYMNGMNRQRNILREKQTDEIKDTRNESTQNCVVAEPEKMESSISSSSEEMSLSKCAEQFCRLNEYNQLQLQAAHAQEQIRRMNENSHVQVPFQQLNQLAAYPYAVWYYPQIMQYVPFPPFSDISNPTAHENYEKNNVMLQW
notes: human αS1-casein (CSN1S1), from plasmid pET TS001; C1 and C2, made from the same plasmid, begin at residue 16 and N1-N4 end at 185, so it probably lacks the signal peptide (1-15); Not phosphorylated (made in E. coli); also called full-length αS1-casein; full-size αS1-casein; source: E. coli, purified (NTA column chromatography); not shown: His6, N-terminal, kept
**Q.** Which results are given for B1?
**A.** IL-8 secretion of TLR4+ cells after 24 h with 15 nM protein (sandwich ELISA) [2]: 23.3 ng/mL; Kd [3]: 2.2 µM; Kd [4]: 2 µM; stoichiometry N [4]: 4

B2: αS1-casein truncated variant N1 (domain or fragment, human, UniProt P47710 35-185, looked up)
chain: EPIPLESREEYMNGMNRQRNILREKQTDEIKDTRNESTQNCVVAEPEKMESSISSSSEEMSLSKCAEQFCRLNEYNQLQLQAAHAQEQIRRMNENSHVQVPFQQLNQLAAYPYAVWYYPQIMQYVPFPPFSDISNPTAHENYEKNNVMLQW
**Q.** Which “IL-8 secretion of TLR4+ cells after 24 h with 15 nM protein (sandwich ELISA)” value [2] does the source give for B2 here?
**A.** 7.5 ng/mL

B3: αS1-casein truncated variant N2 (domain or fragment, human, UniProt P47710 57-185, looked up)
chain: REKQTDEIKDTRNESTQNCVVAEPEKMESSISSSSEEMSLSKCAEQFCRLNEYNQLQLQAAHAQEQIRRMNENSHVQVPFQQLNQLAAYPYAVWYYPQIMQYVPFPPFSDISNPTAHENYEKNNVMLQW
**Q.** For B3, which “IL-8 secretion of TLR4+ cells after 24 h with 15 nM protein (sandwich ELISA)” value [2] is on record?
**A.** 4.8 ng/mL

B4: αS1-casein truncated variant N4 (domain or fragment, human, UniProt P47710 93-185, looked up)
chain: EMSLSKCAEQFCRLNEYNQLQLQAAHAQEQIRRMNENSHVQVPFQQLNQLAAYPYAVWYYPQIMQYVPFPPFSDISNPTAHENYEKNNVMLQW
**Q.** With B4 as the molecule, how does the “IL-8 secretion of TLR4+ cells after 24 h with 15 nM protein (sandwich ELISA)” value [2] read?
**A.** -2.5 ng/mL

B5: αS1-casein truncated variant C1 (domain or fragment, human, UniProt P47710 16-163, looked up)
chain: RPKLPLRYPERLQNPSESSEPIPLESREEYMNGMNRQRNILREKQTDEIKDTRNESTQNCVVAEPEKMESSISSSSEEMSLSKCAEQFCRLNEYNQLQLQAAHAQEQIRRMNENSHVQVPFQQLNQLAAYPYAVWYYPQIMQYVPFPP
notes: human αS1-casein, residues 16-163; Amplified from pET TS001, which codes for an N-terminal His6 tag; also called pET C1; source: E. coli, purified (NTA column chromatography); not shown: His6, C-terminal, kept
**Q.** For B5, which “IL-8 secretion of TLR4+ cells after 24 h with 15 nM protein (sandwich ELISA)” value [2] is on record?
**A.** 5.2 ng/mL

**Q.** And the “fluorescence intensity on TLR4+ cells over TLR4- cells (fold)” value [5]?
**A.** 2.3 fold

B6: αS1-casein truncated variant C2 (domain or fragment, human, UniProt P47710 16-145, looked up)
chain: RPKLPLRYPERLQNPSESSEPIPLESREEYMNGMNRQRNILREKQTDEIKDTRNESTQNCVVAEPEKMESSISSSSEEMSLSKCAEQFCRLNEYNQLQLQAAHAQEQIRRMNENSHVQVPFQQLNQLAAY
notes: human αS1-casein, residues 16-145; Amplified from pET TS001, which codes for an N-terminal His6 tag; also called pET C2; source: E. coli, purified (NTA column chromatography); not shown: His6, C-terminal, kept
**Q.** For B6, which “IL-8 secretion of TLR4+ cells after 24 h with 15 nM protein (sandwich ELISA)” value [2] is on record?
**A.** 5.2 ng/mL

**Q.** And the “fluorescence intensity on TLR4+ cells over TLR4- cells (fold)” value [5]?
**A.** 2.2 fold

B7: in vitro phosphorylated αS1-casein (P-αS1-casein) (natural protein, human, UniProt P47710 16-185, looked up)
chain: RPKLPLRYPERLQNPSESSEPIPLESREEYMNGMNRQRNILREKQTDEIKDTRNESTQNCVVAEPEKMESSISSSSEEMSLSKCAEQFCRLNEYNQLQLQAAHAQEQIRRMNENSHVQVPFQQLNQLAAYPYAVWYYPQIMQYVPFPPFSDISNPTAHENYEKNNVMLQW
modifications: phosphorylated in vitro; the sites of this preparation are not stated
notes: human αS1-casein (CSN1S1), the recombinant protein of m1 after in vitro phosphorylation; source: phosphorylated in vitro
**Q.** For B7, which Kd [4] is on record?
**A.** 0.5 µM
